Here are results for one substance from patent EP0574512B1.

Experiment [1] has as its target MHC class II antigen on the Raji B cell line. Nature of the experiment: cell-based or functional assay.
In experiment [2] the target is HIV-1 envelope gp120/gp41 complex (HIV-1). Nature of the experiment: cell-based or functional assay.

The substance CD4:ζ chimeric receptor yielded a cytolysis (51Cr release) in experiment [1] of 5 % cytolysis. In addition, the mean effector to target ratio for 50% release (51Cr release cytolysis by CTL) (effector to target ratio) in experiment [2] worked out at 1.9.
